Tests used:
EWS-FLI1 = biological target: T1, EWS-FLI1 (UniProt F1JVV7); experiment: EMSA
T1 sequence: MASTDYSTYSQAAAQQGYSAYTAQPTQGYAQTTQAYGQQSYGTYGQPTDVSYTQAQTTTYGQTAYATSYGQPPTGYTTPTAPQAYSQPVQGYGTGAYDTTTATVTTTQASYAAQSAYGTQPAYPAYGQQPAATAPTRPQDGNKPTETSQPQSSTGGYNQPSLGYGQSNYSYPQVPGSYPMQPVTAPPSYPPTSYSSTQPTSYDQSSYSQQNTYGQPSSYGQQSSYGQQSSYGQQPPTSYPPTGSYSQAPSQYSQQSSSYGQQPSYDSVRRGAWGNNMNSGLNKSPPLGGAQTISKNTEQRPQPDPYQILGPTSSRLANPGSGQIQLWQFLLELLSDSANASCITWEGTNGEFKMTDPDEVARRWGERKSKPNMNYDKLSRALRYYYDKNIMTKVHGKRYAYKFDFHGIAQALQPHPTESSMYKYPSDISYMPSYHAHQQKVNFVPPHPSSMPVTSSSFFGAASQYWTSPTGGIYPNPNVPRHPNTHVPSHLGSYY

RHA (RNA helicase A) = experiment: EMSA
[1] = biological target: T2, RNA helicase A (RHA, DHX9) (Homo sapiens, UniProt Q08211); experiment: dsRNA strand-separation gel assay; assay type: biochemical; conditions: 2 mM nucleotide, 2 mM MgCl2, pH 7.5, dsRNA
T2 construct: full-length, N-terminal His-tag, baculovirus / Sf9 cells, nickel IMAC and heparin purified

RNA helicase A (human) [2] = biological target: RNA helicase A (human) (UniProt Q08211)
RNA helicase A (human) [3] = biological target: RNA helicase A (human) (UniProt Q08211); remark: listed apart in the source
RNA helicase A (human) [4] = biological target: RNA helicase A (human) (UniProt Q08211); experiment: SPR; RHA amine-coupled to a CM5 chip (~1800 RU); EWS-FLI1 as analyte at 24 to 0.375 nM; HBS-P with 1-mM TCEP, 2-mM MgCl2, 0.1-M imidazole, pH 7.4; flow 100 ul/min, contact 60 s, dissociation 600 s; sample compartment at 10°C; 1:1 Langmuir model; Biacore T-200

Chain of RNA helicase A (human) (Q08211 whole entry): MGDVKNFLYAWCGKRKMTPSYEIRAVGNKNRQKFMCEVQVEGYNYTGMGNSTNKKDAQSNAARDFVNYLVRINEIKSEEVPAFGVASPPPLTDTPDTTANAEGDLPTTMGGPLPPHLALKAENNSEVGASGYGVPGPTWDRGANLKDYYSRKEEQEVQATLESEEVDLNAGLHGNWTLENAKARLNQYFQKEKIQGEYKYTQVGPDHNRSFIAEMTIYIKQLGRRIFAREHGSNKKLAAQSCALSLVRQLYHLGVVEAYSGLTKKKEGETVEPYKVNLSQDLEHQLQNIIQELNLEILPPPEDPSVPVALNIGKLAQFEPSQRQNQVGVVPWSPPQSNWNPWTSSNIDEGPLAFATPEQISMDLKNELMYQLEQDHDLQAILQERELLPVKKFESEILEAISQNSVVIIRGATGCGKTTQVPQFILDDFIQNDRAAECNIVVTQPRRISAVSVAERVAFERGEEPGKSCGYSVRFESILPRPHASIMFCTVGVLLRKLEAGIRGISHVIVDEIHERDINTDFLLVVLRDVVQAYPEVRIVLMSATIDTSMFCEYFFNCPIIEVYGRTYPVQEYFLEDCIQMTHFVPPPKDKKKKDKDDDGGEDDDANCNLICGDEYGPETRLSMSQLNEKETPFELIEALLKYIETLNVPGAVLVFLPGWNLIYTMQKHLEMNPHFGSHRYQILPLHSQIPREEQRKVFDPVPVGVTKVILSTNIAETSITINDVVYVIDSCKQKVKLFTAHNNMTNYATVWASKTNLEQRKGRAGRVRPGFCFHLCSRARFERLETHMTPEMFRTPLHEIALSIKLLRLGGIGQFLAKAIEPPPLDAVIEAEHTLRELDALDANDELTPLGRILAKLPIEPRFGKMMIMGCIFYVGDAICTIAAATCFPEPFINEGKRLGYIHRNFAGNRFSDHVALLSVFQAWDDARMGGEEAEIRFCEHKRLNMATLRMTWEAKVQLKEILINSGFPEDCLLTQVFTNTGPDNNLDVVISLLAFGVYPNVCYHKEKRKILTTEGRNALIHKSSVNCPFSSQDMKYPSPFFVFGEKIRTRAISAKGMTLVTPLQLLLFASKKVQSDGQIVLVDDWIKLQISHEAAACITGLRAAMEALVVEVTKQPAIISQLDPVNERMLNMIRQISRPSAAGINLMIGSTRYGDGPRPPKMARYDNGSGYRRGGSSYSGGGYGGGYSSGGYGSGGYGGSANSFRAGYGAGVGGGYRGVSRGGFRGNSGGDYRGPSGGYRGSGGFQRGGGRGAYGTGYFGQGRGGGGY
T2 sequence (Q08211 whole entry): as above

Compound: 350-nt partially double-stranded HDV RNA
- Kd (EWS-FLI1): 30 nM
- binding signal (fold decrease in affinity) (EWS-FLI1): 3
- Kd (RHA (RNA helicase A)): 4.7 nM

Compound: Nc1ncnc2c1ncn2[C@@H]1O[C@H](COP(=O)(O)OP(=O)(O)OP(=O)(O)O)[C@@H](O)[C@H]1O [ATP]
- dsRNA strand-separation gel assay [1]: Our purified RHA utilizes ATP, CTP, Uridine triphosphate (UTP) and Guanosine triphosphate (GTP)

Compound: Nc1ccn([C@@H]2O[C@H](COP(=O)(O)OP(=O)(O)OP(=O)(O)O)[C@@H](O)[C@H]2O)c(=O)n1 [CTP]
- dsRNA strand-separation gel assay [1]: Our purified RHA utilizes ATP, CTP, Uridine triphosphate (UTP) and Guanosine triphosphate (GTP)

Compound: EWS-FLI1
- reduction of the initial velocity of RHA helicase activity (dsRNA strand separation), 1-nM RHA with 0.5 to 10 nM EWS-FLI1 (58% reduction at 1 nM) (RNA helicase A (human) [2]): 78%
- helicase activity of 1-nM RHA in the presence of 1-nM EWS-FLI1 with racemic YK-4-279 or (S)-YK-4-279 (30 uM) (RNA helicase A (human) [3]): 80%
- Kd (RNA helicase A (human) [4]): 14 nM
- koff (RNA helicase A (human) [4]): 0.03 s⁻¹
- kon (RNA helicase A (human) [4]): 3.5e+06 M⁻¹ s⁻¹

Reference: article PMC4333382, “RNA helicase A activity is inhibited by oncogenic transcription factor EWS-FLI1” (Nucleic Acids Research, 2015)
